From US20240190966A1 (published 2024)

Target: T1, human LY6G6D-Fc (human, UniProt O95868 20-104)
T1 construct: also called huLY6G6D; hu Ly6G6D; not shown: linker and Fc
T1 sequence: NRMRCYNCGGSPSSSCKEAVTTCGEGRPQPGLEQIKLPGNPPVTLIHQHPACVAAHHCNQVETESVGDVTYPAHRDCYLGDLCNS
Assay: BIAcore SPR; chimeric Fab; Ly6G6D-Fc captured on Protein A chip, 37 C (FIG. 34C)
Protocol: FIG. 34C is a set of graphs showing binding of Fab variants of rabbit 20A12, rabbit 20A12 comprising […] and C50A (IA) mutations, and the polished humanized 20A12 having a QNT amino acid substitution mutations at the glycosylation site of FIG. 34B to LY6G6D, as measured using a BIAcore assay. Ly6G6D-Fc was captured on a Protein A chip, and the Fab was flowed through at 37° C..

Kd: 0.86 nM
B1: rb20A12.IA (C35I-C50A) chimeric Fab (Fab, V domains shown)
VH: QQQLEESGGDLVKPGASLTLTCTASGFDFVNNAMIWVRQAPGKGLEWIAALSFADNTAYYATWASGRFTISKISSTTVTLRMTSLTGADTATYFCMRGDLWGPGTLVTVSS
VL: DIVMTQTPSSVSAAVGGTVTINCQASESITRYLNWYQQKPGQPPKLLIYDASKLPSGVPSRFKGSGSGTQFTLTTSDLECADAATYYCQSTSFRGRSYNNTFGGGTEVVVK
modifications: CDR-L3 NNT site is N-glycosylated.
notes: also called rabbit 20A12 comprising C35I and C50A (IA) mutations
